Results as given in patent US20230002478A1 (published 2023).
Values joined by “and” are separate entries in the source; they are usually repeats but may differ in a detail not shown here. Equal values may be shown once. Read-outs that look alike come from different tables or passages of the source.

Assays:
Assay in all cases: SPR
[1] = target: T1, SARS-CoV-2 spike protein, gamma variant (SPR, FIG. 28 Panel C) (SARS-CoV-2, UniProt P0DTC2 16-1213)
[2] = target: T2, SARS-CoV-2 spike protein, kappa variant (SPR, FIG. 28 Panel D) (SARS-CoV-2, UniProt P0DTC2 16-1213)
[3] = target: T1, SARS-CoV-2 spike protein, gamma variant …; remark: listed apart in the source
[4] = target: T3, SARS-CoV-2 spike protein, beta variant (SPR, FIG. 28 Panel B) (SARS-CoV-2, UniProt P0DTC2 16-1213)
[5] = target: SARS-CoV-2 spike protein, wildtype variant (SPR, FIG. 28 Panel A) (SARS-CoV-2, UniProt P0DTC2 16-1213)
[6] = target: SARS-CoV-2 spike protein, Delta variant (SPR) (SARS-CoV-2, UniProt P0DTC2 16-1213)
[7] = target: T3, SARS-CoV-2 spike protein, beta variant …; remark: listed apart in the source
[8] = target: T2, SARS-CoV-2 spike protein, kappa variant …; remark: listed apart in the source
[9] = target: SARS-CoV-2 S Trimer Alpha B.1.1.7 UK variant
[10] = target: SARS-CoV-2 mutant trimer UK TB918-09

| Binder | Kd [1] [nM] | Kd [6] [nM] | Kd [7] [nM] | Kd [8] [nM] | Kd [9] [nM] | also measured |
| --- | --- | --- | --- | --- | --- | --- |
| antibody 202-03 (Fc fusion) EVQLVESGGGLVQPGGSLRLSCAASGFTFSPSWMGWFRQAPGKEREFVATINEYGGRNYADSVKGRFTISADNSKNTAYLQMNSLKPEDTAVYYCARVDRDFDYWGQGTLVTVSS | < 0.073 | 0.312 | < 0.095 | 0.272 |  | Kd [2]: 0.105 nM; Kd [3]: < 0.041 nM; Kd [4]: < 0.05 nM; Kd [5]: < 0.064 nM |
| T8202-3 (TP37196F) (Fc fusion) EVQLVESGGGLVQPGGSLRLSCAASGFTFSPSWMGWFRQAPGKEREFVATINEYGGRNYADSVKGRFTISADNSKNTAYLQMNSLKPEDTAVYYCARVDRDFDYWGQGTLVTVSS |  |  |  |  | < 0.075 |  |
| 6-3 (Fc fusion) EVQLVESGGGLVQPGGSLRLSCAASGFTFSPSWMGWFRQAPGKEREFVATINEYGGRNYADSVKGRFTISADNSKNTAYLQMNSLKPEDTAVYYCARVDRDFDYWGQGTLVTVSS |  |  |  |  |  | Kd [10]: 0.857 nM and 1.3 nM |
| antibody 339-031 (Fc fusion) EVQLVESGGGLVQPGGSLRLSCAASGSTFSINAMGWFRQAPGKEREFVAGITSSGGYTNYADSVKGRFTISADNSKNTAYLQMNSLKPEDTAVYYCAADGVPEYSDYASGPVWGQGTLVTVSS | < 0.0094 | < 0.011 | < 0.0096 | < 0.01 |  |  |
| T8339-031 (Fc fusion) EVQLVESGGGLVQPGGSLRLSCAASGSTFSINAMGWFRQAPGKEREFVAGITSSGGYTNYADSVKGRFTISADNSKNTAYLQMNSLKPEDTAVYYCAADGVPEYSDYASGPVWGQGTLVTVSS |  |  |  |  | < 0.011 |  |
